± gives the uncertainty stated by the source.

The data set in a line: self-splicing fitness, log relative to wild type (ln ratio); higher = more splicing; Tetrahymena group I intron in knt gene, E. coli kanamycin selection, DiMSum; sequences stand for … in CUCUCU…GGAGGGAAAAGUUAUCAGGCAUGCACCUGGUAGCUAGUCUUUAAACCAAUAGAUUGCAUCGGUUUAAAAGGCAAGACCGUCAAAUUGCGGGAAAGGGGUCAACAGCCGUUCAGUACCAAGUCUCAGGGGAAACUUUGAGAUGGCCUUGCAAAGGGUAUGGUAAUAAGCUGACGGACAUGGUCCUAACCACGCAGCCAAGUCCUAAGUCAACAGAUCUUCUGUUGAUAUGGAUGCAGUUCACAGACUAAAUGUCGGUCGGGGAAGAUGUAUUCUUCUCAUAAGAUAUAGUCGGACCUCUCCUUAAUGGGAGCUAGCGGAUGAAGUGAUGCAACACUGGAGCCGCUGGGAACUAAUUUGUAUGCGAAAGUAUAUUGAUUAGUUUUGGAGUACUCGUGGUCG
The procedure, abridged: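 A randomised library covering all eight P1ex-region intron nucleotides was built with the intron in the knt kanamycin-resistance gene on pET-22b(+) and held in E. coli BL21(DE3). Cells were grown overnight at 37°C or 30°C on LB agar, with or without 25 μg/mL kanamycin, plus 100 μg/mL carbenicillin, 50 μM IPTG and 0.2% rhamnose, and pooled colonies were amplicon-sequenced on an Illumina HiSeq 2500. DiMSum fitness is the error-weighted combination of wild-type-normalised replicate fold changes, kanamycin versus none.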

Regarding CACAAGCAAUAUUACGUGGC, the “self-splicing fitness (ln)” value is -3.15 ± 0.21 (30 °C) and -2.64 ± 0.27 (37 °C).

GUUCAGCAAUAUUACGCUAG: the “self-splicing fitness (ln)” value by setting is: (30 °C) -0.585 ± 0.073; (37 °C) -0.102 ± 0.093.

Take CGACAGCAAUAUUACGCAGU: the “self-splicing fitness (ln)” value is -3.75 ± 0.22 (30 °C) and -2.05 ± 0.23 (37 °C).

For ACAAAGCAAUAUUACGCGCU, the “self-splicing fitness (ln)” value reads like this: (30 °C) -0.245 ± 0.053; (37 °C) 0.00495 ± 0.066.

AGGUAGCAAUAUUACGGUGU: the “self-splicing fitness (ln)” value (30 °C) is -2.356 ± 0.015 and the “self-splicing fitness (ln)” value (37 °C) is -1.01 ± 0.033.

Consider AUAAAGCAAUAUUACGUGUU, for which the “self-splicing fitness (ln)” value runs as follows: (30 °C) -2.97 ± 0.071; (37 °C) -1.11 ± 0.068.

Regarding ACUCAGCAAUAUUACGCGGU, the “self-splicing fitness (ln)” value reads like this: (30 °C) -3.73 ± 0.19; (37 °C) -2.01 ± 0.21.

In the case of CCAAAGCAAUAUUACGUGUG, the “self-splicing fitness (ln)” value reads like this: (30 °C) -1.33 ± 0.055; (37 °C) -0.624 ± 0.066.

Consider GUGGAGCAAUAUUACGUUUA, for which the “self-splicing fitness (ln)” value is -3.33 ± 0.2 (30 °C) and -2.26 ± 0.33 (37 °C).

On to UAGCAGCAAUAUUACGUUGA, for which the “self-splicing fitness (ln)” value runs as follows: (30 °C) -2.46 ± 0.13; (37 °C) -2.07 ± 0.12.

As for UUAAAGCAAUAUUACGGCAA, the “self-splicing fitness (ln)” value (30 °C) turned out to be 0.101 ± 0.12 and the “self-splicing fitness (ln)” value (37 °C) was found to be 0.186 ± 0.16.

In the case of UAGGAGCAAUAUUACGAUUG, the “self-splicing fitness (ln)” value runs as follows: (30 °C) -1.85 ± 0.15; (37 °C) -0.617 ± 0.16.

Consider AGGUAGCAAUAUUACGCGAU, for which the “self-splicing fitness (ln)” value is, setting by setting: (30 °C) -3.466 ± 0.03; (37 °C) -2.24 ± 0.039.

For the sequence UUGCAGCAAUAUUACGGCAU, the “self-splicing fitness (ln)” value is -2.44 ± 0.19 (30 °C) and -1.19 ± 0.1 (37 °C).

Take CGGGAGCAAUAUUACGUGCG: the “self-splicing fitness (ln)” value is, setting by setting: (30 °C) -2.41 ± 0.46; (37 °C) -1.33 ± 0.43.

For the sequence CAAAAGCAAUAUUACGGUGA, the “self-splicing fitness (ln)” value (30 °C) was -1.57 ± 0.096 and the “self-splicing fitness (ln)” value (37 °C) was -1.62 ± 0.1.

In the case of UGCGAGCAAUAUUACGUCCA, the “self-splicing fitness (ln)” value is, setting by setting: (30 °C) -0.227 ± 0.25; (37 °C) -0.499 ± 0.29.

In the case of GUCCAGCAAUAUUACGUAGG, the “self-splicing fitness (ln)” value (30 °C) is -2.31 ± 0.13 and the “self-splicing fitness (ln)” value (37 °C) was -1.84 ± 0.15.

On to CCUAAGCAAUAUUACGCCUA, for which the “self-splicing fitness (ln)” value is, setting by setting: (30 °C) -2.7 ± 0.21; (37 °C) -2.24 ± 0.28.

Take GUUCAGCAAUAUUACGAGGC: the “self-splicing fitness (ln)” value is -2.38 ± 0.48 (30 °C) and -1.27 ± 0.2 (37 °C).

On to CACGAGCAAUAUUACGGCGG, for which the “self-splicing fitness (ln)” value was -2.37 ± 0.092 (30 °C) and -1.14 ± 0.11 (37 °C).

Take AUCCAGCAAUAUUACGGCAU: the “self-splicing fitness (ln)” value (30 °C) was -0.192 ± 0.071 and the “self-splicing fitness (ln)” value (37 °C) was determined as 0.204 ± 0.082.

Regarding UCACAGCAAUAUUACGGACC, the “self-splicing fitness (ln)” value (37 °C) is -2.14 ± 0.29.

Regarding UUUCAGCAAUAUUACGGUGG, the “self-splicing fitness (ln)” value (30 °C) was -1.94 ± 0.067 and the “self-splicing fitness (ln)” value (37 °C) was -0.673 ± 0.075.

As for UUCUAGCAAUAUUACGCAGC, the “self-splicing fitness (ln)” value (37 °C) was -0.431 ± 0.2.

Regarding AGAAAGCAAUAUUACGACUA, the “self-splicing fitness (ln)” value is, setting by setting: (30 °C) -0.244 ± 0.12; (37 °C) -0.42 ± 0.12.

For CAAGAGCAAUAUUACGCUCC, for the setting “30 °C”, the “self-splicing fitness (ln)” value was -2.23 ± 0.44.

On to CGCCAGCAAUAUUACGUGGG, for which the “self-splicing fitness (ln)” value by setting is: (30 °C) -3.79 ± 0.19; (37 °C) -2.38 ± 0.19.

For the sequence GCGUAGCAAUAUUACGGCAC, the “self-splicing fitness (ln)” value by setting is: (30 °C) -0.32 ± 0.17; (37 °C) -0.367 ± 0.22.

On to ACCUAGCAAUAUUACGUCAA, for which the “self-splicing fitness (ln)” value was -2.03 ± 0.2 (30 °C) and -1.78 ± 0.17 (37 °C).

As to CAAGAGCAAUAUUACGCCGG, the “self-splicing fitness (ln)” value is -2 ± 0.15 (30 °C) and -1.35 ± 0.24 (37 °C).

Take UGGUAGCAAUAUUACGCGGA: the “self-splicing fitness (ln)” value was -1.86 ± 0.15 (30 °C) and -0.911 ± 0.17 (37 °C).

Consider UGGAAGCAAUAUUACGAAAA, for which the “self-splicing fitness (ln)” value (30 °C) is -1.93 ± 0.22 and the “self-splicing fitness (ln)” value (37 °C) is -1.13 ± 0.19.

Take UACGAGCAAUAUUACGGAAG: the “self-splicing fitness (ln)” value by setting is: (30 °C) -3.5 ± 0.24; (37 °C) -2.26 ± 0.37.

As for AGCAAGCAAUAUUACGACAU, the “self-splicing fitness (ln)” value is, setting by setting: (30 °C) -0.211 ± 0.011; (37 °C) 0.0321 ± 0.032.

Take GAGCAGCAAUAUUACGUUAU: the “self-splicing fitness (ln)” value by setting is: (30 °C) -1.77 ± 0.087; (37 °C) -1.3 ± 0.12.

For GUAAAGCAAUAUUACGUGCA, the “self-splicing fitness (ln)” value (30 °C) stood at 0.139 ± 0.058 and the “self-splicing fitness (ln)” value (37 °C) came out at 0.551 ± 0.093.

Turning to UACAAGCAAUAUUACGCUAC, the “self-splicing fitness (ln)” value reads like this: (30 °C) -3.76 ± 0.29; (37 °C) -2.26 ± 0.21.

For AUUGAGCAAUAUUACGUCUG, the “self-splicing fitness (ln)” value by setting is: (30 °C) -3.22 ± 0.21; (37 °C) -3 ± 0.26.

On to GGCCAGCAAUAUUACGUAUC, for which the “self-splicing fitness (ln)” value runs as follows: (30 °C) -0.633 ± 0.069; (37 °C) -0.494 ± 0.081.

As to UAAUAGCAAUAUUACGGGUU, the “self-splicing fitness (ln)” value (30 °C) is -3.33 ± 0.24 and the “self-splicing fitness (ln)” value (37 °C) is -2.65 ± 0.21.

With ACUUAGCAAUAUUACGCGUG, the “self-splicing fitness (ln)” value (30 °C) is -1.89 ± 0.1 and the “self-splicing fitness (ln)” value (37 °C) was -1.13 ± 0.11.

For CGGGAGCAAUAUUACGAGUU, the “self-splicing fitness (ln)” value by setting is: (30 °C) -3.12 ± 0.27; (37 °C) -2.59 ± 0.36.

Consider CAACAGCAAUAUUACGGUCC, for which the “self-splicing fitness (ln)” value is -2.56 ± 0.17 (30 °C) and -1.22 ± 0.16 (37 °C).

Consider UCACAGCAAUAUUACGGUAU, for which the “self-splicing fitness (ln)” value by setting is: (30 °C) -3.42 ± 0.19; (37 °C) -3.05 ± 0.18.

As to UCGUAGCAAUAUUACGGAGG, the “self-splicing fitness (ln)” value (30 °C) is -2.53 ± 0.27 and the “self-splicing fitness (ln)” value (37 °C) was -3.14 ± 0.3.

Turning to AACUAGCAAUAUUACGAUCU, the “self-splicing fitness (ln)” value (30 °C) is -0.146 ± 0.082 and the “self-splicing fitness (ln)” value (37 °C) came out at 0.426 ± 0.098.

For the sequence GCUAAGCAAUAUUACGGCAA, the “self-splicing fitness (ln)” value by setting is: (30 °C) -2.17 ± 0.21; (37 °C) -0.981 ± 0.16.

With GGGCAGCAAUAUUACGCGAA, the “self-splicing fitness (ln)” value was -0.567 ± 0.073 (30 °C) and 0.0161 ± 0.099 (37 °C).

As for GACCAGCAAUAUUACGAUGC, the “self-splicing fitness (ln)” value is, setting by setting: (30 °C) -0.38 ± 0.059; (37 °C) -0.185 ± 0.072.

AAUAAGCAAUAUUACGGUUA: the “self-splicing fitness (ln)” value (30 °C) is -0.197 ± 0.08 and the “self-splicing fitness (ln)” value (37 °C) is -0.369 ± 0.077.

Turning to CUACAGCAAUAUUACGUAGU, the “self-splicing fitness (ln)” value was -3.43 ± 0.14 (30 °C) and -2.49 ± 0.2 (37 °C).

In the case of CCACAGCAAUAUUACGGCCG, the “self-splicing fitness (ln)” value runs as follows: (30 °C) -0.955 ± 0.073; (37 °C) 0.0456 ± 0.1.

Turning to UGAGAGCAAUAUUACGUAAG, the “self-splicing fitness (ln)” value is -3.27 ± 0.23 (30 °C) and -1.67 ± 0.21 (37 °C).

Regarding GAAAAGCAAUAUUACGGGAG, the “self-splicing fitness (ln)” value runs as follows: (30 °C) -2.95 ± 0.097; (37 °C) -1.95 ± 0.086.

Take CGCGAGCAAUAUUACGGGGC: the “self-splicing fitness (ln)” value (30 °C) is -3.26 ± 0.26.

As to UGUCAGCAAUAUUACGAGCC, the “self-splicing fitness (ln)” value (30 °C) was -1.74 ± 0.24 and the “self-splicing fitness (ln)” value (37 °C) was -0.631 ± 0.27.

Take GGAGAGCAAUAUUACGACCA: the “self-splicing fitness (ln)” value reads like this: (30 °C) -2.28 ± 0.21; (37 °C) -1.92 ± 0.27.

As for ACCUAGCAAUAUUACGAAUU, the “self-splicing fitness (ln)” value is -2.72 ± 0.13 (30 °C) and -0.574 ± 0.12 (37 °C).

As for CGCCAGCAAUAUUACGGCAG, the “self-splicing fitness (ln)” value reads like this: (30 °C) -2.3 ± 0.11; (37 °C) -1.02 ± 0.12.

For AAGUAGCAAUAUUACGUAAU, the “self-splicing fitness (ln)” value was -2.31 ± 0.1 (30 °C) and 0.0619 ± 0.096 (37 °C).

Source of the values: the supplement of paper PMC7877785.
